Among the data in US20140087995A1 (published 2014) are IC50 values, retold here.

The chains are these.
T1: human calcitonin receptor (human, UniProt P30988 25-474)
T1 construct: whole, on cells; also called hCTR; hCT
T1 sequence (looked up): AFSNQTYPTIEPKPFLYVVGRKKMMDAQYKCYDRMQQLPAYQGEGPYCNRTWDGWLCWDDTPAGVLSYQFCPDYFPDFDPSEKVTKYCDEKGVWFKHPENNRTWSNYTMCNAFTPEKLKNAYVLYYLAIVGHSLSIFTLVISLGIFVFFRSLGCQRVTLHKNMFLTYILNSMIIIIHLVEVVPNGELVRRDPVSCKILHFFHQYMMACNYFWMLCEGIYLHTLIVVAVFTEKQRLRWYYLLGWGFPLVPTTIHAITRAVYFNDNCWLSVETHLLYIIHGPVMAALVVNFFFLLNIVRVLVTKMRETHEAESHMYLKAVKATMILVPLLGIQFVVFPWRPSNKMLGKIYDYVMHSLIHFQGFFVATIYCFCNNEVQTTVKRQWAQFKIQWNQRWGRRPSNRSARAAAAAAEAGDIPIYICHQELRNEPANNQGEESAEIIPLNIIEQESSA

B1: N^ε1-[2-[2-[2-[[(4S)-4-carboxy-4-(19-carboxynonadecanoylamino)butanoyl]amino]ethoxy]ethoxy]acetyl]-[Arg14,Arg17,Pro21,Pro27,Pro31]-h-amylin (peptide)
peptide: K([AEEA-γGlu-C20 diacid])CNTATCATQRLARFLRHSSPNFGAIPSSTPVGSNTY-NH2
modifications: disulfide 2-7; N-terminus assumed
SMILES: CC[C@H](C)[C@H](NC(=O)[C@H](C)NC(=O)CNC(=O)[C@H](Cc1ccccc1)NC(=O)[C@H](CC(N)=O)NC(=O)[C@@H]1CCCN1C(=O)[C@H](CO)NC(=O)[C@H](CO)NC(=O)[C@H](Cc1c[nH]cn1)NC(=O)[C@H](CCCNC(=N)N)NC(=O)[C@H](CC(C)C)NC(=O)[C@H](Cc1ccccc1)NC(=O)[C@H](CCCNC(=N)N)NC(=O)[C@H](C)NC(=O)[C@H](CC(C)C)NC(=O)[C@H](CCCNC(=N)N)NC(=O)[C@H](CCC(N)=O)NC(=O)[C@@H](NC(=O)[C@H](C)NC(=O)[C@@H]1CSSC[C@H](NC(=O)[C@@H](N)CCCCNC(=O)COCCOCCNC(=O)CC[C@H](NC(=O)CCCCCCCCCCCCCCCCCCC(=O)O)C(=O)O)C(=O)N[C@@H](CC(N)=O)C(=O)N[C@@H]([C@@H](C)O)C(=O)N[C@@H](C)C(=O)N[C@@H]([C@@H](C)O)C(=O)N1)[C@@H](C)O)C(=O)N1CCC[C@H]1C(=O)N[C@@H](CO)C(=O)N[C@@H](CO)C(=O)N[C@H](C(=O)N1CCC[C@H]1C(=O)N[C@H](C(=O)NCC(=O)N[C@@H](CO)C(=O)N[C@@H](CC(N)=O)C(=O)N[C@H](C(=O)N[C@@H](Cc1ccc(O)cc1)C(N)=O)[C@@H](C)O)C(C)C)[C@@H](C)O
notes: also called compound 64
B2: N^ε1-[2-[2-[2-[[(4S)-4-carboxy-4-(19-carboxynonadecanoylamino)butanoyl]amino]ethoxy]ethoxy]acetyl]-[Arg17,Pro21,Pro27,Pro28,Pro34]-h-amylin (peptide)
peptide: K([AEEA-γGlu-C20 diacid])CNTATCATQRLANFLRHSSPNFGAIPPSTNVGPNTY-NH2
modifications: disulfide 2-7; N-terminus assumed
SMILES: CC[C@H](C)[C@H](NC(=O)[C@H](C)NC(=O)CNC(=O)[C@H](Cc1ccccc1)NC(=O)[C@H](CC(N)=O)NC(=O)[C@@H]1CCCN1C(=O)[C@H](CO)NC(=O)[C@H](CO)NC(=O)[C@H](Cc1c[nH]cn1)NC(=O)[C@H](CCCNC(=N)N)NC(=O)[C@H](CC(C)C)NC(=O)[C@H](Cc1ccccc1)NC(=O)[C@H](CC(N)=O)NC(=O)[C@H](C)NC(=O)[C@H](CC(C)C)NC(=O)[C@H](CCCNC(=N)N)NC(=O)[C@H](CCC(N)=O)NC(=O)[C@@H](NC(=O)[C@H](C)NC(=O)[C@@H]1CSSC[C@H](NC(=O)[C@@H](N)CCCCNC(=O)COCCOCCNC(=O)CC[C@H](NC(=O)CCCCCCCCCCCCCCCCCCC(=O)O)C(=O)O)C(=O)N[C@@H](CC(N)=O)C(=O)N[C@@H]([C@@H](C)O)C(=O)N[C@@H](C)C(=O)N[C@@H]([C@@H](C)O)C(=O)N1)[C@@H](C)O)C(=O)N1CCC[C@H]1C(=O)N1CCC[C@H]1C(=O)N[C@@H](CO)C(=O)N[C@H](C(=O)N[C@@H](CC(N)=O)C(=O)N[C@H](C(=O)NCC(=O)N1CCC[C@H]1C(=O)N[C@@H](CC(N)=O)C(=O)N[C@H](C(=O)N[C@@H](Cc1ccc(O)cc1)C(N)=O)[C@@H](C)O)C(C)C)[C@@H](C)O
notes: also called compound 55
B3: N^ε1-[2-[2-[2-[[(4S)-4-carboxy-4-(19-carboxynonadecanoylamino)butanoyl]amino]ethoxy]ethoxy]acetyl]-[Arg17,Pro21,Pro27,Glu35]-h-amylin (peptide)
peptide: K([AEEA-γGlu-C20 diacid])CNTATCATQRLANFLRHSSPNFGAIPSSTNVGSETY-NH2
modifications: disulfide 2-7; N-terminus assumed
SMILES: CC[C@H](C)[C@H](NC(=O)[C@H](C)NC(=O)CNC(=O)[C@H](Cc1ccccc1)NC(=O)[C@H](CC(N)=O)NC(=O)[C@@H]1CCCN1C(=O)[C@H](CO)NC(=O)[C@H](CO)NC(=O)[C@H](Cc1c[nH]cn1)NC(=O)[C@H](CCCNC(=N)N)NC(=O)[C@H](CC(C)C)NC(=O)[C@H](Cc1ccccc1)NC(=O)[C@H](CC(N)=O)NC(=O)[C@H](C)NC(=O)[C@H](CC(C)C)NC(=O)[C@H](CCCNC(=N)N)NC(=O)[C@H](CCC(N)=O)NC(=O)[C@@H](NC(=O)[C@H](C)NC(=O)[C@@H]1CSSC[C@H](NC(=O)[C@@H](N)CCCCNC(=O)COCCOCCNC(=O)CC[C@H](NC(=O)CCCCCCCCCCCCCCCCCCC(=O)O)C(=O)O)C(=O)N[C@@H](CC(N)=O)C(=O)N[C@@H]([C@@H](C)O)C(=O)N[C@@H](C)C(=O)N[C@@H]([C@@H](C)O)C(=O)N1)[C@@H](C)O)C(=O)N1CCC[C@H]1C(=O)N[C@@H](CO)C(=O)N[C@@H](CO)C(=O)N[C@H](C(=O)N[C@@H](CC(N)=O)C(=O)N[C@H](C(=O)NCC(=O)N[C@@H](CO)C(=O)N[C@@H](CCC(=O)O)C(=O)N[C@H](C(=O)N[C@@H](Cc1ccc(O)cc1)C(N)=O)[C@@H](C)O)C(C)C)[C@@H](C)O
notes: also called compound 26
B4: N^ε1-[2-[2-[2-[[(4S)-4-carboxy-4-(19-carboxynonadecanoylamino)butanoyl]amino]ethoxy]ethoxy]acetyl]-[Arg17,Pro21,Pro27,Pro29,Pro31]-h-amylin (peptide)
peptide: K([AEEA-γGlu-C20 diacid])CNTATCATQRLANFLRHSSPNFGAIPSPTPVGSNTY-NH2
modifications: disulfide 2-7; N-terminus assumed
SMILES: CC[C@H](C)[C@H](NC(=O)[C@H](C)NC(=O)CNC(=O)[C@H](Cc1ccccc1)NC(=O)[C@H](CC(N)=O)NC(=O)[C@@H]1CCCN1C(=O)[C@H](CO)NC(=O)[C@H](CO)NC(=O)[C@H](Cc1c[nH]cn1)NC(=O)[C@H](CCCNC(=N)N)NC(=O)[C@H](CC(C)C)NC(=O)[C@H](Cc1ccccc1)NC(=O)[C@H](CC(N)=O)NC(=O)[C@H](C)NC(=O)[C@H](CC(C)C)NC(=O)[C@H](CCCNC(=N)N)NC(=O)[C@H](CCC(N)=O)NC(=O)[C@@H](NC(=O)[C@H](C)NC(=O)[C@@H]1CSSC[C@H](NC(=O)[C@@H](N)CCCCNC(=O)COCCOCCNC(=O)CC[C@H](NC(=O)CCCCCCCCCCCCCCCCCCC(=O)O)C(=O)O)C(=O)N[C@@H](CC(N)=O)C(=O)N[C@@H]([C@@H](C)O)C(=O)N[C@@H](C)C(=O)N[C@@H]([C@@H](C)O)C(=O)N1)[C@@H](C)O)C(=O)N1CCC[C@H]1C(=O)N[C@@H](CO)C(=O)N1CCC[C@H]1C(=O)N[C@H](C(=O)N1CCC[C@H]1C(=O)N[C@H](C(=O)NCC(=O)N[C@@H](CO)C(=O)N[C@@H](CC(N)=O)C(=O)N[C@H](C(=O)N[C@@H](Cc1ccc(O)cc1)C(N)=O)[C@@H](C)O)C(C)C)[C@@H](C)O
notes: also called compound 54
B5: N^ε1-[2-[2-[2-[[(4S)-4-carboxy-4-(19-carboxynonadecanoylamino)butanoyl]amino]ethoxy]ethoxy]acetyl]-[Arg17,Pro21,Pro27,Pro28,Pro31]-h-amylin (peptide)
peptide: K([AEEA-γGlu-C20 diacid])CNTATCATQRLANFLRHSSPNFGAIPPSTPVGSNTY-NH2
modifications: disulfide 2-7
notes: also called compound 53
B6: N^ε1-[2-[2-[2-[[(4S)-4-carboxy-4-(19-carboxynonadecanoylamino)butanoyl]amino]ethoxy]ethoxy]acetyl]-[Arg17,Pro21,Pro27,Pro29,Pro34]-h-amylin (peptide)
peptide: K([AEEA-γGlu-C20 diacid])CNTATCATQRLANFLRHSSPNFGAIPSPTNVGPNTY-NH2
modifications: disulfide 2-7; N-terminus assumed
SMILES: CC[C@H](C)[C@H](NC(=O)[C@H](C)NC(=O)CNC(=O)[C@H](Cc1ccccc1)NC(=O)[C@H](CC(N)=O)NC(=O)[C@@H]1CCCN1C(=O)[C@H](CO)NC(=O)[C@H](CO)NC(=O)[C@H](Cc1c[nH]cn1)NC(=O)[C@H](CCCNC(=N)N)NC(=O)[C@H](CC(C)C)NC(=O)[C@H](Cc1ccccc1)NC(=O)[C@H](CC(N)=O)NC(=O)[C@H](C)NC(=O)[C@H](CC(C)C)NC(=O)[C@H](CCCNC(=N)N)NC(=O)[C@H](CCC(N)=O)NC(=O)[C@@H](NC(=O)[C@H](C)NC(=O)[C@@H]1CSSC[C@H](NC(=O)[C@@H](N)CCCCNC(=O)COCCOCCNC(=O)CC[C@H](NC(=O)CCCCCCCCCCCCCCCCCCC(=O)O)C(=O)O)C(=O)N[C@@H](CC(N)=O)C(=O)N[C@@H]([C@@H](C)O)C(=O)N[C@@H](C)C(=O)N[C@@H]([C@@H](C)O)C(=O)N1)[C@@H](C)O)C(=O)N1CCC[C@H]1C(=O)N[C@@H](CO)C(=O)N1CCC[C@H]1C(=O)N[C@H](C(=O)N[C@@H](CC(N)=O)C(=O)N[C@H](C(=O)NCC(=O)N1CCC[C@H]1C(=O)N[C@@H](CC(N)=O)C(=O)N[C@H](C(=O)N[C@@H](Cc1ccc(O)cc1)C(N)=O)[C@@H](C)O)C(C)C)[C@@H](C)O
notes: also called compound 56

Numbered stars: 1 amine (or outer) side, 2 acyl side, 3 side chain; on linkers, the order of the positions; unused ones are H or OH. Bridge positions count the residues as written; N and C are the ends. Side chains are listed from the residue outwards. Ends that are not written are not given here. * marks the point of attachment. C20 diacid = O=C(O)CCCCCCCCCCCCCCCCCCC(=O)*; γGlu = O=C(O)[C@H](CCC(=O)[*:2])N[*:1]; AEEA = NCCOCCOCC(=O)O

In the test the target is T1, human calcitonin receptor. Briefly: SPA competition with 125I-calcitonin, membranes of BHK hCTR cells (Assay VII). On the procedure: Membranes were prepared in the following way; the cells were rinsed with PBS and incubated with Versene for approximately 5 min before harvesting. The cells were flushed with PBS and the cell-suspension was centrifuged for 5 min at 1000 rpm. Cells were homogenized (Ultrathurrax) in a buffer containing 20 mM Na-HEPES and 10 mM EDTA (pH 7.4) and centrifuged at 20.000 rpm for 15 min. The resulting pellet was resuspended, homogenized and centrifuged (20.000 rpm, 15 min) in a buffer containing 20 mM Na-HEPES and 0.1 mM EDTA (pH 7.4, buffer 2). The resulting pellet was resuspended in buffer 2 and protein concentration was measured (BCA protein Assay, Pierce). The homogenate was kept cold during the whole procedure. The membranes were kept at −80° C. until use. Assay was performed in a 384 well Optiplate (PerkinElmer) in a total volume of 40 ul. Membranes were mixed with SPA beads. Final concentration of membranes 35 ng/μL final and Final concentration of SPA beads was 0.05 mg/well. Test-compounds were dissolved in DMSO and further diluted in assay buffer (50 mM Hepes, pH 7.4, 1 mM CaCl2, 5 mM MgCl₂, 0.1% OA and 0.02% Tween20). […] The final mixture was incubated for 120 min with shaking at 400 rpm at 25° C. prior to centrifugation (1500 rpm, 10 min). Samples were analyzed on TopCounter™ (Packard). The […] was calculated using (one site binding competition analysis) GraphPad Prism5 as a measure of receptor affinity.
Usually IC50 stands for the concentration that inhibits the measured activity by half. Turning to B1, the half-inhibitory concentration (IC50) turned out to be 56 nM.
For B2, the IC50 is 2.17 nM.
In the case of B3 it was 25.3 nM; in that of B4, 4.38 nM; in that of B5, 5.38 nM.
Consider B6, for which the IC50 was 2.09 nM.
